Like-named read-outs stand apart in the source and are kept apart here.
Assays:
Assay in all cases: cell-based or functional assay
[1] = biological target: wild type human TSHR (thyrotropin receptor) expressed on CHO cells (human) (UniProt P16473)
[2] = biological target: wild type human TSHR (thyrotropin receptor) expressed on CHO cells (human) (UniProt P16473); remark: listed apart in the source
[3] = biological target: TSHR with Tyr185 mutated to Alanine expressed on CHO cells (human) (UniProt P16473)
[4] = biological target: TSHR with Arg274 mutated to Alanine expressed on CHO cells (human) (UniProt P16473)
[5] = biological target: wild type human TSHR (thyrotropin receptor) expressed on CHO cells (human) (UniProt P16473); remark: listed apart in the source
[6] = biological target: TSHR with Asp43 mutated to Alanine expressed on CHO cells (human) (UniProt P16473)
[7] = biological target: TSHR with activating mutation I568T expressed on CHO cells (human) (UniProt P16473)
[8] = biological target: wild type human TSHR (thyrotropin receptor) expressed on CHO cells (human) (UniProt P16473); remark: listed apart in the source
[9] = biological target: TSHR with activating mutation A623I expressed on CHO cells (human) (UniProt P16473)
[10] = biological target: TSHR with Glu107 mutated to Alanine expressed on CHO cells (human) (UniProt P16473)
[11] = biological target: TSHR with activating mutation S281I expressed on CHO cells (human) (UniProt P16473)
[12] = biological target: TSHR Asp151Ala expressed in CHO cells (human) (UniProt P16473)

- Cyclic AMP produced; 5C9 0.01 µg/mL + TSH (fmol/cell well) [1]: 21200
- Cyclic AMP produced; 5C9 0.1 µg/mL + TSH (fmol/cell well) [1]: 8640
- Cyclic AMP produced; 5C9 1.0 µg/mL + TSH (fmol/cell well) [1]: 915
- Cyclic AMP produced; 5C9 10 µg/mL + TSH (fmol/cell well) [1]: 752
- Cyclic AMP produced; 5C9 100 µg/mL + TSH (fmol/cell well) [1]: 496
- Cyclic AMP produced; 5C9 100 µg/mL only (fmol/cell well) [1]: 460
- Cyclic AMP produced; 5C9 0.01 µg/mL + TSH (fmol/cell well) [2]: 17300
- Cyclic AMP produced; 5C9 0.1 µg/mL + TSH (fmol/cell well) [2]: 6220
- Cyclic AMP produced; 5C9 1.0 µg/mL + TSH (fmol/cell well) [2]: 1660
- Cyclic AMP produced; 5C9 10 µg/mL + TSH (fmol/cell well) [2]: 481
- Cyclic AMP produced; 5C9 100 µg/mL + TSH (fmol/cell well) [2]: 275
- Cyclic AMP produced; 5C9 100 µg/mL only (fmol/cell well) [2]: 123
- Cyclic AMP produced; 5C9 0.01 µg/mL + TSH (fmol/cell well) [3]: 9370
- Cyclic AMP produced; 5C9 0.1 µg/mL + TSH (fmol/cell well) [3]: 4540
- Cyclic AMP produced; 5C9 1.0 µg/mL + TSH (fmol/cell well) [3]: 1200
- Cyclic AMP produced; 5C9 10 µg/mL + TSH (fmol/cell well) [3]: 301
- Cyclic AMP produced; 5C9 100 µg/mL only (fmol/cell well) [3]: 163
- Mutated/wild type (%); 5C9 0.01 µg/mL + TSH [3]: 54%
- Mutated/wild type (%); 5C9 0.1 µg/mL + TSH [3]: 73%
- Mutated/wild type (%); 5C9 1.0 µg/mL + TSH [3]: 72%
- Mutated/wild type (%); 5C9 10 µg/mL + TSH [3]: 63%
- Mutated/wild type (%); 5C9 100 µg/mL only [3]: 133%
- Cyclic AMP produced; 5C9 0.01 µg/mL + TSH (fmol/cell well) [4]: 9560
- Cyclic AMP produced; 5C9 0.1 µg/mL + TSH (fmol/cell well) [4]: 1320
- Cyclic AMP produced; 5C9 1.0 µg/mL + TSH (fmol/cell well) [4]: 177
- Cyclic AMP produced; 5C9 10 µg/mL + TSH (fmol/cell well) [4]: 108
- Cyclic AMP produced; 5C9 100 µg/mL + TSH (fmol/cell well) [4]: 17
- Cyclic AMP produced; 5C9 100 µg/mL only (fmol/cell well) [4]: 34
- Mutated/wild type (%); 5C9 0.01 µg/mL + TSH [4]: 58%
- Mutated/wild type (%); 5C9 0.1 µg/mL + TSH [4]: 26%
- Mutated/wild type (%); 5C9 1.0 µg/mL + TSH [4]: 22%
- Mutated/wild type (%); 5C9 10 µg/mL + TSH [4]: 16%
- Mutated/wild type (%); 5C9 100 µg/mL + TSH [4]: 7%
- Mutated/wild type (%); 5C9 100 µg/mL only [4]: 31%
- Cyclic AMP produced; 5C9 0.01 µg/mL + TSH (fmol/cell well) [5]: 16300
- Cyclic AMP produced; 5C9 0.1 µg/mL + TSH (fmol/cell well) [5]: 5000
- Cyclic AMP produced; 5C9 1.0 µg/mL + TSH (fmol/cell well) [5]: 808
- Cyclic AMP produced; 5C9 10 µg/mL + TSH (fmol/cell well) [5]: 684
- Cyclic AMP produced; 5C9 100 µg/mL + TSH (fmol/cell well) [5]: 246
- Cyclic AMP produced; 5C9 100 µg/mL only (fmol/cell well) [5]: 111
- Cyclic AMP produced; 5C9 0.01 µg/mL + TSH (fmol/cell well) [6]: 12700
- Cyclic AMP produced; 5C9 0.1 µg/mL + TSH (fmol/cell well) [6]: 6730
- Cyclic AMP produced; 5C9 1.0 µg/mL + TSH (fmol/cell well) [6]: 471
- Cyclic AMP produced; 5C9 10 µg/mL + TSH (fmol/cell well) [6]: 119
- Cyclic AMP produced; 5C9 100 µg/mL + TSH (fmol/cell well) [6]: 31
- Cyclic AMP produced; 5C9 100 µg/mL only (fmol/cell well) [6]: 206
- Mutated/wild type (%); 5C9 0.01 µg/mL + TSH [6]: 97%
- Mutated/wild type (%); 5C9 0.1 µg/mL + TSH [6]: 86%
- Mutated/wild type (%); 5C9 1.0 µg/mL + TSH [6]: 23%
- Mutated/wild type (%); 5C9 10 µg/mL + TSH [6]: 39%
- Mutated/wild type (%); 5C9 100 µg/mL + TSH [6]: 37%
- Mutated/wild type (%); 5C9 100 µg/mL only [6]: 438%
- Cyclic AMP concentration (basal) in the presence of 5C9 IgG (1 µg/mL) (fmol/cell well) [7]: 548
- Cyclic AMP concentration (basal) in the presence of 5C9 IgG (1 µg/mL) (fmol/cell well) [8]: 1870
- Cyclic AMP produced; 5C9 0.01 µg/mL + TSH (fmol/cell well) [8]: 13100
- Cyclic AMP produced; 5C9 0.1 µg/mL + TSH (fmol/cell well) [8]: 7810
- Cyclic AMP produced; 5C9 1.0 µg/mL + TSH (fmol/cell well) [8]: 2020
- Cyclic AMP produced; 5C9 10 µg/mL + TSH (fmol/cell well) [8]: 306
- Cyclic AMP produced; 5C9 100 µg/mL + TSH (fmol/cell well) [8]: 84
- Cyclic AMP produced; 5C9 100 µg/mL only (fmol/cell well) [8]: 47
- Cyclic AMP produced; Experiment 1; 5C9 0.01 µg/mL + TSH (fmol/cell well) [8]: 17000
- Cyclic AMP produced; Experiment 1; 5C9 0.1 µg/mL + TSH (fmol/cell well) [8]: 5950
- Cyclic AMP produced; Experiment 1; 5C9 1.0 µg/mL + TSH (fmol/cell well) [8]: 1060
- Cyclic AMP produced; Experiment 1; 5C9 10 µg/mL + TSH (fmol/cell well) [8]: 496
- Cyclic AMP produced; Experiment 1; 5C9 100 µg/mL + TSH (fmol/cell well) [8]: 193
- Cyclic AMP produced; Experiment 1; 5C9 100 µg/mL only (fmol/cell well) [8]: 1270
- Cyclic AMP produced; Experiment 2; 5C9 0.01 µg/mL + TSH (fmol/cell well) [8]: 18600
- Cyclic AMP produced; Experiment 2; 5C9 0.1 µg/mL + TSH (fmol/cell well) [8]: 4220
- Cyclic AMP produced; Experiment 2; 5C9 1.0 µg/mL + TSH (fmol/cell well) [8]: 738
- Cyclic AMP produced; Experiment 2; 5C9 10 µg/mL + TSH (fmol/cell well) [8]: 214
- Cyclic AMP produced; Experiment 2; 5C9 100 µg/mL + TSH (fmol/cell well) [8]: 238
- Cyclic AMP produced; Experiment 2; 5C9 100 µg/mL only (fmol/cell well) [8]: 211
- Cyclic AMP concentration (basal) in the presence of 5C9 IgG (1 µg/mL) (fmol/cell well) [9]: 1910
- inhibition of basal cyclic AMP activity; 5C9 IgG at 1 µg/mL [9]: 49%
- Cyclic AMP produced; Experiment 1; 5C9 0.01 µg/mL + TSH (fmol/cell well) [10]: 15000
- Cyclic AMP produced; Experiment 1; 5C9 0.1 µg/mL + TSH (fmol/cell well) [10]: 5780
- Cyclic AMP produced; Experiment 1; 5C9 1.0 µg/mL + TSH (fmol/cell well) [10]: 394
- Cyclic AMP produced; Experiment 1; 5C9 10 µg/mL + TSH (fmol/cell well) [10]: 449
- Cyclic AMP produced; Experiment 1; 5C9 100 µg/mL + TSH (fmol/cell well) [10]: 203
- Cyclic AMP produced; Experiment 1; 5C9 100 µg/mL only (fmol/cell well) [10]: 462
- Cyclic AMP produced; Experiment 2; 5C9 0.01 µg/mL + TSH (fmol/cell well) [10]: 21000
- Cyclic AMP produced; Experiment 2; 5C9 0.1 µg/mL + TSH (fmol/cell well) [10]: 1540
- Cyclic AMP produced; Experiment 2; 5C9 1.0 µg/mL + TSH (fmol/cell well) [10]: 28
- Cyclic AMP produced; Experiment 2; 5C9 10 µg/mL + TSH (fmol/cell well) [10]: 321
- Cyclic AMP produced; Experiment 2; 5C9 100 µg/mL + TSH (fmol/cell well) [10]: 64
- Cyclic AMP produced; Experiment 2; 5C9 100 µg/mL only (fmol/cell well) [10]: 408
- Mutated/wild type (%); Experiment 1; 5C9 0.01 µg/mL + TSH [10]: 88%
- Mutated/wild type (%); Experiment 1; 5C9 0.1 µg/mL + TSH [10]: 97%
- Mutated/wild type (%); Experiment 1; 5C9 1.0 µg/mL + TSH [10]: 37%
- Mutated/wild type (%); Experiment 1; 5C9 10 µg/mL + TSH [10]: 91%
- Mutated/wild type (%); Experiment 1; 5C9 100 µg/mL + TSH [10]: 105%
- Mutated/wild type (%); Experiment 1; 5C9 100 µg/mL only [10]: 36%
- Mutated/wild type (%); Experiment 2; 5C9 0.01 µg/mL + TSH [10]: 113%
- Mutated/wild type (%); Experiment 2; 5C9 0.1 µg/mL + TSH [10]: 37%
- Mutated/wild type (%); Experiment 2; 5C9 1.0 µg/mL + TSH [10]: 4%
- Mutated/wild type (%); Experiment 2; 5C9 10 µg/mL + TSH [10]: 150%
- Mutated/wild type (%); Experiment 2; 5C9 100 µg/mL + TSH [10]: 27%
- Mutated/wild type (%); Experiment 2; 5C9 100 µg/mL only [10]: 193%
- Cyclic AMP concentration (basal) in the presence of 5C9 IgG (1 µg/mL) (fmol/cell well) [11]: 655
- % inhibition of TSH stimulation of cyclic AMP; 5C9 IgG 1 µg/mL [12]: 49%
B1: 5C9 IgG (human monoclonal autoantibody to the TSHR) (antibody, from another filing, V domains shown)
VH: EVQLVESGGGLIQPGGSLRLSCAASGFTVSSNYMSWVRQAPGKGLEWVSVTYSGGSTSYADSVKGRFTISRDNSKNTLYLQMNSLRAEDTAVYYCARGGRYCSSISCYARSGCDYWGQGTLVTVSS
VL: AIQMTQSPSSLSASVGDRVTITCRASQSISNYLNWYQQKPGKAPKLLIYAASSLQSGVPSRFSGSGSGTDFTLTISSLQPEDFATYYCQQSYSSPSTTFGQGTKLEIK

From patent US8840891 (RSR, dated 2014)
